Experiments:
Experiment in all cases: SPR (Biacore), receptor-Fc captured by anti-Fc antibody, ligand injected
activin A = molecular target: T1, activin A (UniProt P08476 311-426)
T1 sequence (looked up): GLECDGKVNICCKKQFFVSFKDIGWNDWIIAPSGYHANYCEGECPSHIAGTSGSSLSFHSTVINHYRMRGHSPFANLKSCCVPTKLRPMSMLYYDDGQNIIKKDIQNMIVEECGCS
Experimental: (§1) A Biacore™-based binding assay was used to compare ligand binding selectivity of the ActRIIB-Fc:ALK7-Fc heterodimeric complex described above with that of ActRIIB-Fc and ALK7-Fc homodimeric complexes. The ActRIIB-Fc:ALK7-Fc heterodimer, ActRIIB-Fc homodimer, and ALK7-Fc homodimer were independently captured onto the system using an anti-Fc antibody. Ligands were injected and allowed to flow over the captured receptor protein. Results are summarized in the table below, in which ligand off-rates (kd) most indicative of effective ligand traps are denoted by bold text.

activin B = molecular target: T2, activin B (UniProt P09529 293-407)
T2 sequence (looked up): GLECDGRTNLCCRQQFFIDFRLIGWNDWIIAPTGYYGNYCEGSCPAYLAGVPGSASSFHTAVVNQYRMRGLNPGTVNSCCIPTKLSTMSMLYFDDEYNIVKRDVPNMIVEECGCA
Experimental: as §1

activin C = molecular target: T3, activin C (UniProt P55103 237-352)
T3 sequence (looked up): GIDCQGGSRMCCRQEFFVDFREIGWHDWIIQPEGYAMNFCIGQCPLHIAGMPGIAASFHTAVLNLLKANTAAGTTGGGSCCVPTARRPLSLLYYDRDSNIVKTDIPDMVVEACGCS
Experimental: as §1

activin AC = molecular target: T4, activin AC (UniProt P08476 311-426; P55103 237-352)
T4 sequence (looked up) 1: T1 sequence (looked up)
T4 sequence (looked up) 2: T3 sequence (looked up)
Experimental: as §1

BMP5 = molecular target: T5, BMP5 (UniProt P22003 317-454, limits assumed)
T5 sequence (looked up): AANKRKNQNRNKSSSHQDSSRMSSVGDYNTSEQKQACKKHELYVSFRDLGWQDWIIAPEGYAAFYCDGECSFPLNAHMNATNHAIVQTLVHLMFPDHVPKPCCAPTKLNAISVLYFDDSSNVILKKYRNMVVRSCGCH
Experimental: as §1

BMP6 = molecular target: T6, BMP6 (UniProt P22004 375-513, limits assumed)
T6 sequence (looked up): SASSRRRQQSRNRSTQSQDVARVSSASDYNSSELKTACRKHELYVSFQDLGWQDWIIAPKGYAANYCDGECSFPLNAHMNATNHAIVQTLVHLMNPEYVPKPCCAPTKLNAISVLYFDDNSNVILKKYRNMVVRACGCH
Experimental: as §1

Kd (activin A): 0.011 nM | koff (activin A): 0.00014 s⁻¹ | kon (activin A): 1.3e+07 M⁻¹ s⁻¹ | Kd (activin B): 0.008 nM | koff (activin B): 0.00016 s⁻¹ | kon (activin B): 1.5e+07 M⁻¹ s⁻¹ | binding result (activin C): no binding | Kd (activin AC): 0.16 nM | koff (activin AC): 0.0031 s⁻¹ | kon (activin AC): 2e+07 M⁻¹ s⁻¹ | Kd (BMP5): 2.9 nM | koff (BMP5): 0.075 s⁻¹ | kon (BMP5): 2.6e+07 M⁻¹ s⁻¹ | Kd (BMP6): 0.16 nM | koff (BMP6): 0.0039 s⁻¹ | kon (BMP6): 2.4e+07 M⁻¹ s⁻¹
B1: ActRIIB-Fc homodimer (Fc fusion)
chain: GRGEAETRECIYYNANWELERTNQSGLERCEGEQDKRLHCYASWRNSSGTIELVKKGCWLDDFNCYDRQECVATEENPQVYFCCCEGNFCNERFTHLPEAGGPEVTYEPPPTAPT
notes: also called ActRIIB-Fc homodimeric complex; ActRIIB homodimer; not shown: linker and Fc domain of the homodimer

From patent US20220289852A1 (ACCELERON PHARMA, published 2022)
